The experiment addresses T1, 6xHis-tagged SA2 (1–1051 aa), baculovirus-expressed (human, UniProt Q8N3U4 1-1051).
T1 construct: source: Sf21 insect cells, baculovirus, in cell extract; not shown: 6xHis, N-terminal, kept
T1 sequence (looked up): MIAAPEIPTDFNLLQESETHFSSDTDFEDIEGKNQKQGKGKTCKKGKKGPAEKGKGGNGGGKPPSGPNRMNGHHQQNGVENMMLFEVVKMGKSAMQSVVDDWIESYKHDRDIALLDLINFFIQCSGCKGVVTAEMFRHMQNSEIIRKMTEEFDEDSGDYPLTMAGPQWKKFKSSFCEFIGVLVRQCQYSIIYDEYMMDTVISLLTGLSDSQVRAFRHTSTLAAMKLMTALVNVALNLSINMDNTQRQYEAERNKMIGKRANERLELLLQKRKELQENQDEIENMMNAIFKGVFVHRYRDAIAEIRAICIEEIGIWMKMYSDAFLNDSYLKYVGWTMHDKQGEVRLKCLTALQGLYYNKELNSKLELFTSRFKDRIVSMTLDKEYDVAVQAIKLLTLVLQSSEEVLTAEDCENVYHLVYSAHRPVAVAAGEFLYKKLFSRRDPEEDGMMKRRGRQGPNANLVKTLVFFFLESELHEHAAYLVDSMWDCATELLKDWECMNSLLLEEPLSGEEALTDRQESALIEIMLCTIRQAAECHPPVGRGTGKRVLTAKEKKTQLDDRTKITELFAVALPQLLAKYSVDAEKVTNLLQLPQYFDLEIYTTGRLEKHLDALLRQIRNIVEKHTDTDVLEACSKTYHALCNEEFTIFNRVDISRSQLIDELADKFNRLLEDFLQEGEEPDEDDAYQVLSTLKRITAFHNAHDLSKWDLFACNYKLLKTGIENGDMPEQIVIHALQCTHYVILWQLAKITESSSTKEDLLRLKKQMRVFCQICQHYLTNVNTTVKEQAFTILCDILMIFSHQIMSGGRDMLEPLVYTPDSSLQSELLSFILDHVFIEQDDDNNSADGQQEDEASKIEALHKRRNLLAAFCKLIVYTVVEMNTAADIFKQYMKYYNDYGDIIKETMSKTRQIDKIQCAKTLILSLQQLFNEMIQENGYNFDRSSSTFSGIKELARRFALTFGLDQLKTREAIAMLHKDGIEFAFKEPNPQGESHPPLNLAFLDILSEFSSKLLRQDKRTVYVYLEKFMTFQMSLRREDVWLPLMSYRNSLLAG
Briefly: SEC; complex co-expressed in Sf21 cells and purified by Ni-NTA and anion exchange, then Superose 6 gel filtration; 25 mM Tris-HCl pH 7.5, 200 mM NaCl, 5% glycerol. As to conditions: both partners purified. Background: SEC sorts molecules by how far they enter the pores of the column.

The record followed here is paper PMC3709894, “Characterization of the Interaction between the Cohesin Subunits Rad21 and SA1/2” (PLoS ONE, 2013).

B1: Flag-tagged Rad21 (171–450 aa), baculovirus-expressed (domain or fragment, human, UniProt O60216 171-450, looked up)
chain: MREGSAFEDDDMLVSTTTSNLLLESEQSTSNLNEKINHLEYEDQYKDDNFGEGNDGGILDDKLISNNDGGIFDDPPALSEAGVMLPEQPAHDDMDEDDNVSMGGPDSPDSVDPVEPMPTMTDQTTLVPNEEEAFALEPIDITVKETKAKRKRKLIVDSVKELDSKTIRAQLSDYSDIVTTLDLAPPTKKLMMWKETGGVEKLFSLPAQPLWNNRLLKLFTRCLTPLVPEDLRKRRKGGEADNLDEFLKEFENPEVPREDQQQQHQQRDVIDEPIIEEPSR
notes: also called Rad21 middle region; source: Sf21 insect cells, baculovirus, in cell extract
On to B1, for which the binding result is given as “binds”.
